Measured values as given in the supplement of paper PMC10567573.

B1: TPD52L1 (parent)
chain: ISKKFGDMSYSIRHSISMPAMRNS
B2: TRIM63 (parent)
chain: ANPYWTSRGSSVSMSGGRFRCPTC

Variants of: B1
Assay: protein stability index of a GFP-peptide fusion (GPS, HEK-293T) (PSI 1-6); higher = more stable
Conditions: c terminus: a fixed tail appended
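Note: lentivirally expressed fusions sorted by FACS into six bins by GFP to DsRed ratio, PSI derived from sequencing read proportions per bin multiplied by bin number.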

Protein stability index of substitutions, site by site:
S24: N 2.33 | M 1.82 | V 2.24 | Q 1.76 | E 2.15 | G 2.13 | C 1.92 | H 2.42 | K 2.21 | P 2.33 | T 2.74 | A 2.63 | Y 1.77 | R 2.67 | W 1.44 | L 1.96 | D 2.61 | F 1.57 | I 1.81
M21: Y 2.46 | V 2.53 | S 2.46 | R 2.57 | T 2.49 | W 2.79
N23: W 2.39 | R 2.14 | A 1.86 | F 1.84 | M 2.05 | P 2.46 | Y 1.51 | H 2.19 | L 1.98 | I 1.77 | G 2.42 | T 2.31 | K 2.48 | D 2.32 | C 1.91 | E 2.28 | S 2.26 | Q 2.29 | V 1.84
R22: K 2.75 | S 2.13 | D 2.52 | L 1.82 | T 2.6 | A 2.23 | P 2.34 | M 2.25 | Q 2.3 | V 1.8 | Y 1.88 | G 2.66 | W 1.65 | E 2.18 | N 2.79 | C 1.97 | I 1.85 | F 2.22 | H 2.56

Variants of: B2
Assay: as above
Conditions: c terminus: a fixed tail appended

Protein stability index: each site, then its substitutions
V12: K 2.19 | H 1.98 | T 2.9 | E 2.16 | R 1.32 | A 1.49 | W 2.87 | L 1.29 | M 1.63 | S 2.46 | Y 1.69
G9: L 1.56 | Y 2.32 | F 1.92 | M 1.39 | H 1.31 | R 2.15 | Q 1.3 | I 1.39 | A 1.7 | N 2.13 | D 1.94 | E 1.6 | S 1.9 | W 1.43 | V 1.91
S10: M 1.84 | E 1.76 | C 2.18 | Q 2.83 | V 1.72 | H 2.44 | K 1.65 | L 1.46 | Y 1.57 | T 2.24
G17: L 1.81 | Q 2.07 | I 2.27 | P 1.76 | T 1.17 | V 2.77 | D 1.43 | E 1.7 | R 2.65 | S 2.26 | N 1.75 | F 1.72 | W 1.49 | H 1.53 | M 2.73
S11: T 2.18 | I 3.32 | N 2.32 | M 1.63 | D 2.08 | E 1.76 | C 1.88 | H 2.68 | P 2.14 | Q 2.55 | V 2.21 | A 2.3
Y4: M 1.75 | S 1.65 | C 2.92 | W 2.18 | K 2.09
M14: P 2.64 | V 1.86 | H 2.21 | L 2.21 | N 2.03 | Q 1.41 | F 2.04
R18: T 2.14 | A 1.89 | C 1.4 | K 1.44 | V 1.08 | M 2.49 | D 2.16 | Q 1.32 | N 2.24 | P 1.65
N2: L 1.37 | T 1.73 | S 1.89 | Q 1.23 | P 1.76 | M 1.6 | G 1.84 | F 1.6 | H 2.3 | R 2.05 | C 2.43
C24: D 3.73 | I 2.05 | M 2.07 | F 2.55 | Q 2.12 | Y 3.28 | H 2.29 | E 3.19 | P 3.22 | G 3.18 | N 2.66
R8: P 1.55 | T 1.8 | I 1.4 | K 1.95 | L 2.33 | S 1.65 | M 1.39 | A 1.85 | Q 1.99 | D 1.91 | E 3.19 | G 1.55 | F 1.27
R20: N 1.57 | W 2.43 | M 2.12 | I 1.91 | F 1.27 | A 2.38 | H 1.85 | S 2.32 | T 1.78 | K 2.61 | C 2.12 | P 2.4 | Y 1.96 | G 1.82 | D 2.79
A1: L 1.89 | H 1.88 | I 1.53 | G 1.66 | D 1.67 | N 2.18 | M 2.07 | E 2.31 | R 2.08 | P 1.28 | T 1.88
P22: T 2.69 | N 2.5 | Q 2.87 | R 2.12 | S 2.19 | M 1.97 | D 2.22 | C 1.89 | F 2.97 | V 2.56 | L 1.24 | K 1.98 | I 2.75
P3: A 2.08 | H 2.82 | S 1.36 | Y 2.38 | Q 2.2 | N 1.07 | F 2.13 | M 1.54 | I 2.14 | E 1.91
T6: C 1.58 | I 1.84 | N 1.74 | E 1.51 | A 2.1 | K 1.56 | Y 1.69 | S 1.45 | D 1.83 | G 2.44 | M 2.24 | P 1.66
T23: W 2.47 | Y 1.75 | H 2.28 | L 2.58 | N 2.03 | S 2.52 | E 1.69 | G 3.11 | K 3.23 | V 1.34 | P 2.26 | A 1.87
S15: W 1.8 | N 1.01 | F 2.61 | I 1.4 | Q 2.58 | T 1.43 | H 1.87 | A 2.94 | Y 1.57 | P 2.09
S7: A 2.41 | H 1.45 | F 2.07 | D 2.38 | N 1.37 | E 1.28 | L 1.6 | M 2.53 | V 1.93
G16: R 1.05 | V 1.3 | H 2.42 | P 2.08 | A 1.72 | E 1.58 | N 1.34 | C 1.91 | T 1.96 | F 1.32
S13: F 1.93 | C 2.02 | I 1.58 | P 2.21 | Q 2.13 | E 2.98 | G 3.37 | H 1.9 | N 2.18 | W 1.79 | T 1.83 | K 2.39 | V 1.89 | L 2.07 | R 1.52
F19: C 3.67 | T 2.94 | D 2.75 | E 3.29 | H 2.12 | Q 2.19 | S 3.07 | P 2.25 | A 2.04 | G 3.02 | M 2.79 | I 2.34 | N 2.24
W5: N 2.44 | F 1.41 | M 2.16 | Y 1.7 | H 2.17 | V 2.59 | C 1.6 | T 1.76 | S 1.9 | P 2.44 | A 1.92 | L 1.73 | E 2.25 | D 2.19
C21: F 1.76 | P 2.72 | K 2.97 | V 1.9 | I 2.67 | R 2.77 | G 2.86
